Data reported in the RNAGym collection of RNA variant scans (doi:10.7554/elife.80360).

B1: HDV Ribozyme (parent)
chain: GGCCGGCAUGGUCCCAGCCUCCUCGCUGGCGCCGGCUGGGCAACAUUCCGAGGGGACCGUCCCCUCGGUAAUGGCGAAUGGGACCCA

Variants of: B1
Experiment: self-cleavage, relative activity (ratio to wild type); higher = more cleavage; co-transcriptional
Variant C49U A87C has a self-cleavage of 1.05. For C48G C63U, the self-cleavage was 1.08. Work on C48G C63A yielded a self-cleavage of 0.435. For C49A C57U, the self-cleavage was 1.15. G50A G55A gave a self-cleavage of 0.783. Variant C48G U65A has a self-cleavage of 0.511. With C48G U65G the self-cleavage was 0.504. C48G U65C showed a self-cleavage of 0.931. C49U A70G showed a self-cleavage of 0.748. C49U A70U showed a self-cleavage of 0.877. Work on C49U A70C yielded a self-cleavage of 0.782. For C49A G68A, the self-cleavage was 0.742. C49A G53C showed a self-cleavage of 0.506. C49A G53A gave a self-cleavage of 0.816. C49U A71U showed a self-cleavage of 0.875. C49U A71C showed a self-cleavage of 0.641. C49U A71G gave a self-cleavage of 1.16. With G50A C64A the self-cleavage was 0.479. G50A C64G gave a self-cleavage of 0.404. For G50A C64U, the self-cleavage was 1.26. Work on G50A C85A yielded a self-cleavage of 0.941. G50A C85U showed a self-cleavage of 0.938. Work on C49A C85A yielded a self-cleavage of 1.13. Work on C49A C85U yielded a self-cleavage of 0.811. C49U C66A showed a self-cleavage of 0.984. In the case of G50A G80A, the self-cleavage is reported as 0.415. Variant G50A G80C has a self-cleavage of 0.284. Work on C48U A78U yielded a self-cleavage of 0.298. Variant C48G U69A has a self-cleavage of 0.956. With C49G G53U the self-cleavage was 0.723. Work on C49G G53A yielded a self-cleavage of 0.475. With C49G G53C the self-cleavage was 0.249. Variant C48G G52U has a self-cleavage of 0.612. C48U A51C gave a self-cleavage of 0.919. In the case of C48U A51G, the self-cleavage is reported as 0.618. Work on C48U A51U yielded a self-cleavage of 1.07. C49A U69A gave a self-cleavage of 0.808. In the case of C49G U65A, the self-cleavage is reported as 0.573. Work on C49G U65G yielded a self-cleavage of 0.489. Work on C49A G73C yielded a self-cleavage of 0.293. With C49U U72C the self-cleavage was 0.554. In the case of C49U U72G, the self-cleavage is reported as 0.745. C49U U72A gave a self-cleavage of 0.965. With C49U C85G the self-cleavage was 0.876. Work on C49U C85U yielded a self-cleavage of 0.799. For C49G C58G, the self-cleavage was 0.855. C49G C58U gave a self-cleavage of 1.05. With C49G G67A the self-cleavage was 0.637. Variant C49G G67U has a self-cleavage of 0.9. For C49G C66A, the self-cleavage was 0.773. For C48U A87C, the self-cleavage was 0.989. With C49G A70U the self-cleavage was 0.429. For C49G A70C, the self-cleavage was 0.415. With C49U G80A the self-cleavage was 0.4. C49G C75G gave a self-cleavage of 0.299. For C49U A77U, the self-cleavage was 0.297. In the case of C49U A77G, the self-cleavage is reported as 0.95. Variant G50A A87U has a self-cleavage of 1.08. Variant C49U C75G has a self-cleavage of 0.0723. Variant C49U C75U has a self-cleavage of 0.13. In the case of C49A A78C, the self-cleavage is reported as 0.116. In the case of C48U C75G, the self-cleavage is reported as 0.0852. C48U C75U gave a self-cleavage of 0.211. With C49G U79A the self-cleavage was 0.895. With C49G U79G the self-cleavage was 0.762. With C49G A56G the self-cleavage was 0.917. For C49G A56U, the self-cleavage was 0.96. For C49U G52C, the self-cleavage was 0.866. With C49U G52A the self-cleavage was 0.96. Work on C48A U79A yielded a self-cleavage of 0.974. With G50A C75U the self-cleavage was 0.178. In the case of G50A C75A, the self-cleavage is reported as 0.178. Work on C48G G82A yielded a self-cleavage of 0.403. Work on C48U G74U yielded a self-cleavage of 0.554. G50A A56U showed a self-cleavage of 1.06. With C49G C61A the self-cleavage was 0.848. Work on C49G C61U yielded a self-cleavage of 0.432. C48G G54C gave a self-cleavage of 0.665. For C48G G54U, the self-cleavage was 0.726. For C48G G53C, the self-cleavage was 0.776. C48G G53U showed a self-cleavage of 0.893. C48U U65G showed a self-cleavage of 0.748. In the case of C48U U65C, the self-cleavage is reported as 1.07. For C48U A77G, the self-cleavage was 0.612. Work on C48U A77C yielded a self-cleavage of 0.57. C48G G67U showed a self-cleavage of 0.972. In the case of C48G G67C, the self-cleavage is reported as 1. C49G A78U gave a self-cleavage of 0.138. Variant C49G A78C has a self-cleavage of 0.262. For C49U C84U, the self-cleavage was 0.676. Variant C48G U60G has a self-cleavage of 1.01. Variant C48G U60C has a self-cleavage of 0.969. C49A G59C gave a self-cleavage of 1.08. C49A G59U showed a self-cleavage of 0.945. Work on C48U G50C yielded a self-cleavage of 0.965. C49A C84G showed a self-cleavage of 0.743. Variant C49A C84U has a self-cleavage of 0.686. For C48G C84G, the self-cleavage was 0.646. C48G A71C gave a self-cleavage of 1.03. With C49G G82A the self-cleavage was 0.0966. C49U U65A gave a self-cleavage of 0.966. For C48A U72A, the self-cleavage was 0.456. Variant C48A U72G has a self-cleavage of 0.525. Work on C49A U79C yielded a self-cleavage of 0.61. Work on C49A U79G yielded a self-cleavage of 0.665. In the case of C49G A71C, the self-cleavage is reported as 0.302. C49A C61G gave a self-cleavage of 0.816. Work on C48G C86U yielded a self-cleavage of 0.932. C48A U65G gave a self-cleavage of 0.954. C48A U65C gave a self-cleavage of 0.98. G50A U65G showed a self-cleavage of 0.95. Work on G50A U65C yielded a self-cleavage of 0.769. In the case of C49G C85A, the self-cleavage is reported as 0.789. For C49G C85G, the self-cleavage was 0.712. C49G C85U showed a self-cleavage of 0.912. G50A C62U showed a self-cleavage of 0.926. C48U G80U showed a self-cleavage of 0.194. For C49G A77G, the self-cleavage was 0.536. With C49G A77U the self-cleavage was 0.604. G50A G59U gave a self-cleavage of 1.18. G50A G59A showed a self-cleavage of 1.03. Work on C49A C58G yielded a self-cleavage of 0.988. C49A C58A gave a self-cleavage of 0.986. C49A C58U gave a self-cleavage of 1.04. Work on C49G C64G yielded a self-cleavage of 0.308. With C49A A87U the self-cleavage was 0.857. Variant C49U C61A has a self-cleavage of 0.76. Variant C49U C61G has a self-cleavage of 0.731. C48U G82U gave a self-cleavage of 0.437. In the case of C48U G82A, the self-cleavage is reported as 0.532. C49A C64U gave a self-cleavage of 0.831. C48G G80A showed a self-cleavage of 0.4. C48U G54A gave a self-cleavage of 0.813. For C48G A56G, the self-cleavage was 1.03. Variant C48G A87U has a self-cleavage of 1.09. Work on C49A C86A yielded a self-cleavage of 1.22. For C49A C86U, the self-cleavage was 0.795. C49G G59C showed a self-cleavage of 0.793. In the case of C49G G59U, the self-cleavage is reported as 0.889. For C48U U72G, the self-cleavage was 0.639. Work on C48U A56U yielded a self-cleavage of 0.987. For C48G G50C, the self-cleavage was 0.939. In the case of C48G G50A, the self-cleavage is reported as 0.798. In the case of C49A G50U, the self-cleavage is reported as 0.816. For C49A G50A, the self-cleavage was 0.929. With G50A A51U the self-cleavage was 0.763. For G50A A51C, the self-cleavage was 0.991. Variant C48U G73A has a self-cleavage of 0.526. C48U G73U showed a self-cleavage of 0.521. C48U C61A showed a self-cleavage of 0.87. Work on C48U C61G yielded a self-cleavage of 0.855. Variant C49U C62G has a self-cleavage of 0.665. Variant C48U G59U has a self-cleavage of 1.06. C49G C62U gave a self-cleavage of 0.831. In the case of C49G C62A, the self-cleavage is reported as 0.739. G50A G82U gave a self-cleavage of 0.364. For G50A G82A, the self-cleavage was 0.614. In the case of C49G G68U, the self-cleavage is reported as 0.808. For C49A U65A, the self-cleavage was 0.751. G50A C66A gave a self-cleavage of 1.18. C49U G67A showed a self-cleavage of 0.891. In the case of C49U G67U, the self-cleavage is reported as 0.859. C49U G81C showed a self-cleavage of 0.317. C49U C64U showed a self-cleavage of 1.05. Work on C49A A51U yielded a self-cleavage of 0.539. G50A C63G showed a self-cleavage of 0.0475. With G50A C63A the self-cleavage was 0.436.
